Ends that are not written are not given here.
Assays:
Experiment in all cases: EIA; Ab 250 ng/mL captured on anti-mouse Fc; bt-peptide 500 ng/mL
[1] = molecular target: T1, WT1STHV biotin labeled HCV core peptide (hepatitis C virus, biotin labeled)
T1 peptide: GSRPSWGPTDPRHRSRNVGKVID

[2] = molecular target: T2, Mut1T110N biotin labeled HCV core peptide (hepatitis C virus, biotin labeled)
T2 peptide: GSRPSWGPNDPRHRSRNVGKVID

[3] = molecular target: Mut6T110S biotin labeled HCV core peptide (hepatitis C virus)
[4] = molecular target: T3, C113T109N biotin labeled HCV core peptide (hepatitis C virus, also: biotin labeled, position not given here)
T3 peptide: RGSRPSWGPND

[5] = molecular target: T4, C113WT biotin labeled HCV core peptide (hepatitis C virus, also: biotin labeled, position not given here)
T4 peptide: RGSRPSWGPTD

B1: HCV Neo4 monoclonal antibody (antibody, V domains shown)
VH: QIQLKESGPAVIKPSQSLSLTCIVSGFSITSSVYCWQWIRQPPGKGLEWMGRICYDGSVDYSPSITSRGTISRDTSLNKVFFQLSSVTNEDTAMYYCSRENHIDYYDTTYPSFDVWGAGTTVTVSS
VL: DIVLTQSPASLIVSLGQRATISCRASKSVNEYGYTYMHWYQQKPGLPPKLLIYLASNLDSGVPARFSGSGSGTDFTLNIHPVEEEDAATYYCQHSRELPYTFGGGTKLEIKR
For B1, the “signal at 492 nm” value [1] was 1.99 OD 492 nm, the “signal at 492 nm” value [2] was 0.089 OD 492 nm and the “signal at 492 nm” value [3] was 1.15 OD 492 nm. For the same binder, the “signal at 492 nm” value [4] was 0.111 OD 492 nm and the “signal at 492 nm” value [5] was 0.0607 OD 492 nm.
